Article PMC9101815, “Extracellular Matrix Biomimetic Hydrogels, Encapsulated with Stromal Cell-Derived Factor 1, Improve the Composition of Foetal Tissue Grafts in a Rodent Model of Parkinson’s Disease” (International Journal of Molecular Sciences, 2022)
Ends that are not written are not given here. * marks the point of attachment. Fmoc = O=C(OCC1c2ccccc2-c2ccccc21)*

Target: the molecule itself
Test: FTIR + circular dichroism + transmission electron microscopy; peptide alone; gelation by pH switch, 20 mg/mL stock; self-assembly under physiological conditions (pH 7.4) into nanofibrils and a hydrogel

B1: Fmoc-DDIKVAV self-assembling peptide (peptide)
peptide: Fmoc-DDIKVAV
notes: Whole peptide as printed: DDIKVAV with N-terminal Fmoc; Assembles into nanofibres and a hydrogel; also called SAP; IKVAV SAP; source: solid phase peptide synthesis
binding result: binds
